Several values for one entry are separate records, joined by “and”; a condition that tells them apart may be missing. Equal entries are not always repeated. Where two headings read alike, the source gives them in different places. Square brackets hold non-standard residues; d marks the D form. Ends that are not written are not given here. Peptide text beside a SMILES is read from it. * marks the point of attachment. ξ: configuration not given here. Biotin = O=C1N[C@H]2[C@H](CS[C@H]2CCCCC(=O)*)N1; ξGly(nC16H33) = CCCCCCCCCCCCCCCCC(N)C(=O)O; Palmitoyl = CCCCCCCCCCCCCCCC(=O)*; NHhexadecyl = CCCCCCCCCCCCCCCCN*; Myristoyl = CCCCCCCCCCCCCC(=O)*
Biological target: CXCR4 (Homo sapiens, UniProt P61073)
Sequence (P61073 whole entry): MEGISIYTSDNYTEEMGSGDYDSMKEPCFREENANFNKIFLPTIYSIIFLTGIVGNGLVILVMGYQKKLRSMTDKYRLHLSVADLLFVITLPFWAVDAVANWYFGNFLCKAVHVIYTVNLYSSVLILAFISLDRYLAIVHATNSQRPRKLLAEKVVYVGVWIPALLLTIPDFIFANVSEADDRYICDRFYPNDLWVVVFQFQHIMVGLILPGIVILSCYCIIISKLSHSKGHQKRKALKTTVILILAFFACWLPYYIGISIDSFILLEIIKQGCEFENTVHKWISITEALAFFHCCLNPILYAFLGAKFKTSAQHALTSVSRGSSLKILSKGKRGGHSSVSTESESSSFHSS
Assay: Chemotaxis assay, effect on SDF1-a (CXCL12) induced migration of CCRF-CEM cells
Format: cell-based
Set-up: a human T-cell ALL line that endogenously expresses CXCR4; endogenous in cells; host or cells: CCRF-CEM (human T-cell ALL line)
Conditions: CEM cells; for activity at 1 µM: CCRF-CEM
[1] = Table 18, i1 loop, drug conc 1.0 uM
[2] = Table 18, i1 loop, drug conc 1.0 uM, read-out: AUC (% of)
[3] = Table 18, i1 loop, drug conc 1.0 uM, read-out: Max (% of)

Compound | AUC (% of vehicle) (Table 20, i3 loop, conc 1.0 uM) | Max (% of vehicle) (Table 20, i3 loop, conc 1.0 uM) | AUC (% of vehicle) (Table 21, i4 loop, conc 1.0 uM) | Max (% of vehicle) (Table 21, i4 loop, conc 1.0 uM) | other results
53 (MGYQKKLRSMTDKYRLHL; not fully specified) [Compound 53] | – | – | – | – | AUC (% of) [1]: 60.98 % of and 91.1 % of; Max (% of) [1]: 68.45 % of and 89.56 % of
89: CXCR4 i3 loop compound (KLSHSKGHQKRKALKTTVIL) [Compound 89] | 37.55 % of vehicle | 59.71 % of vehicle | – | – | –
96: CXCR4 i3 loop compound (SHSKGHQKRKALK; also: lipid Pal, place not given here) [Compound 96] | 34.22 % of vehicle | 63.12 % of vehicle | – | – | –
101: CXCR4 i3 loop compound (SKLSHSKGHQKRKALK) [Compound 101] | 75.55 % of vehicle | 74.92 % of vehicle | – | – | –
102: CXCR4 i3 loop compound (IIISKLSHSKGHQKRKALKT) [Compound 102] | 0 % of vehicle | 0.24 % of vehicle | – | – | –
103: CXCR4 i3 loop compound (IIISKLSHSKGHQKRKALKT) [Compound 103] | 26.32 % of vehicle | 24.45 % of vehicle | – | – | –
104: CXCR4 i3 loop compound (IIISKLSHSKGHQKRKALKT) [Compound 104] | 36.4 % of vehicle | 56.39 % of vehicle | – | – | –
108: CXCR4 i4 domain compound (GAKFKTSAQHALTSVSRGSSLKILSKGKRG) [Compound 108] | – | – | 89.47 % of Vehicle | 83.94 % of Vehicle | Peak Test Comp. (Table 21, i4 loop, conc 1.0 uM): 25 nM
109: CXCR4 i4 domain compound (GAKFKTSAQHALTSVSRGSSLKILSKGKRGGHSSVST) [Compound 109] | – | – | 49.31 % of Vehicle | 49.84 % of Vehicle | Peak Test Comp. (Table 21, i4 loop, conc 1.0 uM): 0.2 nM
110: CXCR4 i4 domain compound (GAKFKTSAQHALTSVSRGSSLKILSKGKRGGHSCFH) [Compound 110] | – | – | 40.98 % of Vehicle | 42.08 % of Vehicle | –
114: CXCR4 i4 domain compound (GAKFKTSAQHALTSVSRGSSLKILSK) [Compound 114] | – | – | 34.22 % of Vehicle | 63.12 % of Vehicle | –
115: CXCR4 i4 domain compound (GAKFKTSAQHALTSVSRGSSLK) [Compound 115] | – | – | 77.47 % of Vehicle | 92.11 % of Vehicle | –
116: CXCR4 i4 domain compound (GAKFKTSAQHALTSVR) [Compound 116] | – | – | 65.28 % of Vehicle | 80.48 % of Vehicle | –
CCCCCCCCCCCCCCCCC(NC(=O)CCCC[C@@H]1SC[C@@H]2NC(=O)N[C@@H]21)C(=O)N[C@@H](CCSC)C(=O)NCC(=O)N[C@@H](Cc1ccc(O)cc1)C(=O)N[C@@H](CCC(N)=O)C(=O)N[C@@H](CCCCN)C(=O)N[C@@H](CCCCN)C(=O)N[C@@H](CC(C)C)C(=O)N[C@@H](CCCNC(=N)N)C(=O)N[C@@H](CO)C(=O)N[C@@H](CCSC)C(=O)N[C@H](C(=O)N[C@@H](CC(=O)O)C(N)=O)[C@@H](C)O (stereo partly shown) [Compound 33] (Biotin-[ξGly(nC16H33)]MGYQKKLRSMTD-NH2) | – | – | – | – | activity at 1 µM [2]: 54.8%; activity at 1 µM [3]: 76.1%
CCCCCCCCCCCCCCCCC(NC(=O)CCCCCCCCCCCCC)C(=O)N[C@@H](CCSC)C(=O)NCC(=O)N[C@@H](Cc1ccc(O)cc1)C(=O)N[C@@H](CCC(N)=O)C(=O)N[C@@H](CCCCN)C(=O)N[C@@H](CCCCN)C(=O)N[C@@H](CC(C)C)C(=O)N[C@@H](CCCNC(=N)N)C(=O)N[C@@H](CO)C(=O)N[C@@H](CCSC)C(=O)N[C@H](C(=O)N[C@@H](CC(=O)O)C(=O)N[C@@H](CCCCN)C(=O)N[C@@H](Cc1ccc(O)cc1)C(=O)N[C@@H](CCCNC(=N)N)C(=O)N[C@H](C(N)=O)[C@@H](C)CC)[C@@H](C)O (stereo partly shown) [Compound 48] (Myristoyl-[ξGly(nC16H33)]MGYQKKLRSMTDKYRI-NH2) | – | – | – | – | activity at 1 µM [2]: 53%; activity at 1 µM [3]: 53.5%
CCCCCCCCCCCCCCCC(=O)N[C@@H](CCSC)C(=O)NCC(=O)N[C@@H](Cc1ccc(O)cc1)C(=O)N[C@@H](CCC(N)=O)C(=O)N[C@@H](CCCCN)C(=O)N[C@@H](CCCCN)C(=O)N[C@@H](CC(C)C)C(=O)N[C@@H](CCCNC(=N)N)C(=O)N[C@@H](CO)C(=O)N[C@@H](CCSC)C(=O)N[C@H](C(=O)N[C@@H](CC(=O)O)C(=O)N[C@@H](CCCCN)C(=O)N[C@@H](Cc1ccc(O)cc1)C(=O)N[C@@H](CCCNC(=N)N)C(=O)N[C@H](C(N)=O)[C@@H](C)CC)[C@@H](C)O [Compound 49] (Palmitoyl-MGYQKKLRSMTDKYRI-NH2) | – | – | – | – | activity at 1 µM [2]: 50.9%; activity at 1 µM [3]: 62.7%
CCCCCCCCCCCCCCCCNC(=O)[C@H](CCCCN)NC(=O)[C@H](CC(=O)O)NC(=O)[C@@H](NC(=O)[C@H](CCSC)NC(=O)[C@H](CO)NC(=O)[C@H](CCCNC(=N)N)NC(=O)[C@H](CC(C)C)NC(=O)[C@H](CCCCN)NC(=O)[C@H](CCCCN)NC(=O)[C@H](CCC(N)=O)NC(=O)[C@H](Cc1ccc(O)cc1)NC(=O)CNC(=O)[C@H](CCSC)NC(C)=O)[C@@H](C)O [Compound 59] (Ac-MGYQKKLRSMTDK-NHhexadecyl) | – | – | – | – | activity at 1 µM [2]: 51.6%
CCCCCCCCCCCCCCCC(=O)N[C@@H](CO)C(=O)NCC(=O)N[C@@H](Cc1ccc(O)cc1)C(=O)N[C@@H](CCC(N)=O)C(=O)N[C@@H](CCCCN)C(=O)N[C@@H](CCCCN)C(=O)N[C@@H](CC(C)C)C(=O)N[C@@H](CCCNC(=N)N)C(=O)N[C@@H](CO)C(=O)N[C@@H](CO)C(=O)N[C@H](C(=O)N[C@@H](CC(=O)O)C(N)=O)[C@@H](C)O [Compound 69] (Palmitoyl-SGYQKKLRSSTD-NH2) | – | – | – | – | activity at 1 µM [2]: 100%; activity at 1 µM [3]: 93.1%; Peak Test Comp. [1]: 25 nM; Peak Ratio (Table 18, i1 loop, drug conc 1.0 uM, peak test comp./peak control): 1
CCCCCCCCCCCCCCCCC(NC(=O)CCCC[C@@H]1SC[C@@H]2NC(=O)N[C@@H]21)C(=O)N[C@@H](Cc1cnc[nH]1)C(=O)N[C@@H](CO)C(=O)N[C@@H](CCCCN)C(=O)NCC(=O)N[C@@H](Cc1cnc[nH]1)C(=O)N[C@@H](CCC(N)=O)C(=O)N[C@@H](CCCCN)C(=O)N[C@@H](CCCNC(=N)N)C(=O)N[C@@H](CCCCN)C(=O)N[C@@H](C)C(=O)N[C@@H](CC(C)C)C(=O)N[C@@H](CCCCN)C(N)=O (stereo partly shown) [Compound 87] (Biotin-[ξGly(nC16H33)]HSKGHQKRKALK-NH2) | – | – | – | – | activity at 1 µM (Table 20, i3 loop, conc 1.0 uM, read-out: AUC (% of vehicle)): 52.6%; activity at 1 µM (Table 20, i3 loop, conc 1.0 uM, read-out: Max (% of vehicle)): 76.1%; Peak Test Compound (Table 20, i3 loop, conc 1.0 uM): 0.2 nM; Peak Ratio (Table 20, i3 loop, conc 1.0 uM, peak test compound/peak control): 0.2

— patent US9096646B2, “CXCR4 receptor compounds” (priority 2008, dated 2015)
